One assay concerns the target T1, human glypican-1 (GPC1) (human, UniProt P35052 24-530).
T1 construct: also called human GPC1; HuGPC1
T1 sequence (looked up): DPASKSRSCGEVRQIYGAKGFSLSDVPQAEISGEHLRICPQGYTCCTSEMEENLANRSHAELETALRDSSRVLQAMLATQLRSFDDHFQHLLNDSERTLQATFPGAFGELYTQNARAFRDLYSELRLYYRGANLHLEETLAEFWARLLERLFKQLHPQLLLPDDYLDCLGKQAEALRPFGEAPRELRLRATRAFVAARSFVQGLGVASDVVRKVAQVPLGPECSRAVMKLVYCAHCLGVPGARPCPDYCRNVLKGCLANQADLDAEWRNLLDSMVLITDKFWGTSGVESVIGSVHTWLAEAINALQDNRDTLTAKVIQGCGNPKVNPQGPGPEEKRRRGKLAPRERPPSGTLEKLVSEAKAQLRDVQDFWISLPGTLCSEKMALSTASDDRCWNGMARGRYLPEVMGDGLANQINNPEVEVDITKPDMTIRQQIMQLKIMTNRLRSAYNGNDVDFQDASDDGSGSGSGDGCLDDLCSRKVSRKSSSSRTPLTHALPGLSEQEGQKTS
Put plainly: Octet kinetic analysis.

The target in another assay is T2, human GPC2 (human, UniProt Q8N158 24-554, limits assumed).
T2 sequence (looked up): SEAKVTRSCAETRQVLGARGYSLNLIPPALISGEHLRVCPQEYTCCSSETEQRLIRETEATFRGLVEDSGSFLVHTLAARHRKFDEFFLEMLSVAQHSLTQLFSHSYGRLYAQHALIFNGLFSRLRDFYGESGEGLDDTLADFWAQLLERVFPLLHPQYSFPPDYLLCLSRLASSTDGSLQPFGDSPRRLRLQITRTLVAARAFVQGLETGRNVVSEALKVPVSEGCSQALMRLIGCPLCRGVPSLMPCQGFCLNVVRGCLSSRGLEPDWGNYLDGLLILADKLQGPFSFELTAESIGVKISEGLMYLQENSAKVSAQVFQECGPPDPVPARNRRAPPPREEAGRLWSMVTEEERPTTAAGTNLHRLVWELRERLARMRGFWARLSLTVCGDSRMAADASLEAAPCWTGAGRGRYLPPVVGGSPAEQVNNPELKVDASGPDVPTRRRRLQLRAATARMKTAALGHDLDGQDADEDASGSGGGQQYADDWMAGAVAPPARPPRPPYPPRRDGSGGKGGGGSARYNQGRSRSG
In words: ELISA.

The target in a further assay is human GPC3 (human, UniProt P51654 25-559, limits assumed). Put plainly: ELISA.
human GPC3, sequence (P51654 25-559 limits assumed): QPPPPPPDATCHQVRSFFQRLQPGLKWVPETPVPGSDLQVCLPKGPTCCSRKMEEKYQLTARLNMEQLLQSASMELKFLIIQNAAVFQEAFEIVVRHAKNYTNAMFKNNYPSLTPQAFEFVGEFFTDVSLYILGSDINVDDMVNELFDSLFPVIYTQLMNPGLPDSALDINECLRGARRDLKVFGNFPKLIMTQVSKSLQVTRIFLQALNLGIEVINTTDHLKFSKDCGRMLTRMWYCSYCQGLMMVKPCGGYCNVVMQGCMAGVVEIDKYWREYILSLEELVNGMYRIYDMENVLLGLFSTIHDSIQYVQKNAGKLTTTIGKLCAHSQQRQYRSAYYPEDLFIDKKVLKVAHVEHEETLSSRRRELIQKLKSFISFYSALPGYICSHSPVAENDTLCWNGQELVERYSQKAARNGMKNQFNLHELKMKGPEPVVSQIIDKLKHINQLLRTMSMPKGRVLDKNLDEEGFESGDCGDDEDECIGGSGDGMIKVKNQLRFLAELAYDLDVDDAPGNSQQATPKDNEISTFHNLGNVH
The target in assay [1] is T3, human GPC5 (printed as 'GPCS') (human, UniProt P78333 25-554, limits assumed).
T3 construct: The text prints 'GPCS'
T3 sequence (looked up): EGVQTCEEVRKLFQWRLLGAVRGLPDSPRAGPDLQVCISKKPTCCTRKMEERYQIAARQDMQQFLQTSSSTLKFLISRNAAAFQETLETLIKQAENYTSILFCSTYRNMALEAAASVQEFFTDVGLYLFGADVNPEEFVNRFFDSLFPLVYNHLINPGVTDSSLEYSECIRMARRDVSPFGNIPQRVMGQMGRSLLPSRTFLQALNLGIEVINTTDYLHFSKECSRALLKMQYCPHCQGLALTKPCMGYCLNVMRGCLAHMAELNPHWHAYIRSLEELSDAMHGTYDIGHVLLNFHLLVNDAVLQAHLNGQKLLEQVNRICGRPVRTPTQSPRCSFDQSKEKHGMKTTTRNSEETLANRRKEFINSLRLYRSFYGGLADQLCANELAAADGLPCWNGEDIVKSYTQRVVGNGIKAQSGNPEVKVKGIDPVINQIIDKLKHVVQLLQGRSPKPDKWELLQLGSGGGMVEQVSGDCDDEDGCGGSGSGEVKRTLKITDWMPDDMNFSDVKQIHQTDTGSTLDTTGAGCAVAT
In words: ELISA.

For the next assay, the target named is T4, human GPC6 (human, UniProt Q9Y625 24-529, limits assumed).
T4 sequence (looked up): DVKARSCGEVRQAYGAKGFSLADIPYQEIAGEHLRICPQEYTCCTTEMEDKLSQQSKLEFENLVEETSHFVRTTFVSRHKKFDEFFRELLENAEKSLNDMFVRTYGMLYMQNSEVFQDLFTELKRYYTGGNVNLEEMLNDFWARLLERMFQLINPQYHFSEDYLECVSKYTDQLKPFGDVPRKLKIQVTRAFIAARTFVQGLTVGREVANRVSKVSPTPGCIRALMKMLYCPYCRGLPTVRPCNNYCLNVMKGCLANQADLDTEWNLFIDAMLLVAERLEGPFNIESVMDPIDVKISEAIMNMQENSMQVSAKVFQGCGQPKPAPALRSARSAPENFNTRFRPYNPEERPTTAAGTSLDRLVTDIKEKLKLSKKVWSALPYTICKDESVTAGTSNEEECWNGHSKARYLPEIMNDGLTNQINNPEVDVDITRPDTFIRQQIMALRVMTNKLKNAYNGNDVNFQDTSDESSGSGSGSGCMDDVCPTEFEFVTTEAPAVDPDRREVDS
Put plainly: ELISA.

B1: mouse monoclonal antibody HM2 (antibody, V domains shown)
VH: EVQLQQSGAELVRPGASVKLSCTASGFNIKDDYMHWVKQRPEQGLEWIGWIDPENGDTEYASKFQGKATITADTSSNTAYLQLSSLTSEDTAVYYCTRSSVGYWGQGTTLTVSS
VL: DVVMTQTPLSLPVSLGDQASISCRSSQSLVHSNGNTYLHWYLQKPGQSPKLLIYKVSNRFSGVPDRFSGSGSGTYFTLKISRVEAEDLGVYFCSQRTHVPYTFGGGTKLEIK
notes: Mouse hybridoma antibody; also called HM2 antibody; HM2 anti-GPC1 monoclonal antibody
Molecule B1 had a Kd with human glypican-1 (GPC1) of 1.2 nM. The binding result (with human GPC2; in the assay with human GPC3; in assay [1]; with human GPC6) was “no binding” throughout.

The values above are taken from patent publication US20220098323A1 (US Dept. of Health and Human Services, published 2022).
